Source: PMC5147500 (Cell, 2016)
Non-standard residues stand in square brackets, D forms with d. No end group written: not given here. SeMet = C[Se]CC[C@H](N)C(=O)O

Experiments:
full-length human SNX3 = full-length human SNX3 (human, UniProt O60493-1 1-162); assay: crystal structure
[1] = target: VPS26A residues 1–317, the VPS26 part of the fusion VPS26(1–317)-DMT1(545–568) (human, UniProt O75436-1 1-317); assay: crystal structure

Row | binding result (full-length human SNX3) | binding result [1] | Binder
1 | binds |  | {VPS26(1–321)}-TAQPELYLLNT[SeMet] (peptide, UniProt P49281 549-560, looked up) [DMT1-II recycling signal residues 549–560, the DMT1 part of the fusion VPS26(1–321)-DMT1(549–560)]
2 | binds |  | {VPS26(1–321)}-TAQPELYL[SeMet]NT[SeMet] (peptide, UniProt P49281 549-560, looked up)
3 |  | binds | {VPS26(1–317)}-HLGLTAQPELYLLNTMDADSLVSR (peptide, UniProt P49281 545-568, looked up) [DMT1-II recycling signal residues 545–568, the DMT1 part of the fusion VPS26(1–317)-DMT1(545–568)]
